B1: SEQ ID No. 2 (protein, listed as Naja atra)
chain: MKTLLLTLLVVTIVCLDLGYTLECHNQQSSQTPTTTGCSGGETNCYKKRWRDHRGYRTERGCGCPSVKNGIEINCCTTDRCNN
B2: SEQ ID No. 1 (protein, listed as Naja atra)
chain: LECHNQQSSQTPTTTGCSGGETNCYKKRWRDHRGYRTERGCGCPSVKNGIEINCCTTDRCNN

Key:
[1] = tested on: streptozotocin (STZ)-induced rat nephritis proteinuria; test: Streptozotocin (STZ)-induced nephritis proteinuria in rats; type: in vivo; conditions: urine, ELISA, streptozotocin (STZ) 55 mg/kg, 20 ug/kg by gavage once a day for 8 weeks
[2] = tested on: adriamycin induced rat nephritis proteinuria; test: Adriamycin induced nephritis proteinuria in rats (unilateral nephrectomy + adriamycin); type: in vivo; conditions: urine, ELISA, adriamycin 3 + 2 mg/kg, 20 ug/kg by gavage once a day for 8 weeks
Description: 1. Experimental Animals and Groups
80 male SD rats weighing 160-180 g were randomly divided into 2 groups: 20 in the control group and 60 in the model group. 40 rats in model group, after success in modeling, were randomly divided into cobra neurotoxin polypeptide treatment group and model group.
Each group of the three, namely control group, treatment group and model group were randomly divided into two groups again, with 10 rats in each group to test cobra neurotoxin peptide SEQ ID No. 1 and SEQ ID No. 2, the remaining rats were out of the groups.
Glomerulosclerotic rats were established by unilateral nephrectomy combined with tail vein injection of adriamycin twice every 2 weeks. Model. […] The control group was injected into caudal vein on the 4th and 18th day respectively with normal saline 0.5 ml.
During the 8 weeks of observation, the treatment group was given cobra neurotoxin polypeptide·20 ug/kg by gavage once a day, continuously for 8 weeks; the model group and the control group were perfused with normal saline once a day for 8 weeks.
3. Collection and Detection of Urinary Protein
After the last treatment, the rats were placed in the metabolic cage to collect 10 ml of urine, centrifuged at 3500 r/min for 10 min, the supernatant was extracted into the cryopreservation tube, stored in the refrigerator at −80° C. for standby, and the urinary A1 microglobulin was detected by enzyme-linked immunosorbent assay, β2-microglobulin, microalbumin, transferrin and immunoglobulin G (IgG), operate according to the instructions of ELISA kit.
Anesthetized rats were injected intraperitoneally with 1.5% Pentobarbital Sodium (50 mg/kg). After the corneal reflex disappeared, the abdominal cavity was opened and the abdominal aorta was exposed. The abdominal aorta collected 10 ml of whole blood and placed in a centrifuge tube. After standing for 2 h, centrifuged at 3500 r/min for 10 min. The supernatant was extracted in a cryopreservation tube and stored in a refrigerator at −80° C. for standby. The serum creatinine, urea nitrogen, cholesterol and triglyceride were detected by a full-automatic biochemical analyzer.

[3] = target: T1, nicotinic acetylcholine receptor (nAChR) (Rattus norvegicus, UniProt P25108+P25110); test: 125I-αBtx-nAChR binding inhibition (affinity test of snake venom protein peaks); conditions: rat skeletal muscle nAChR extract; αBTX = 100%, BSA = 0%
T1 construct: rat skeletal muscle nAChR extract; from tissue; host or cells: rat skeletal muscle (extract)
Description: The method was based on the affinity test between 12 protein peaks and nicotinic acetylcholine receptor (nAChR).
The Principle of Affinity Test
Because α-bungarotoxin has high affinity with the nicotinic acetylcholine receptor (nAChR), the cobra neurotoxin can compete with α-bungarotoxin for binding with nicotinic acetylcholine receptor, and only these α-bungarotoxin labeled with the radionuclide 125I and bound with the nicotinic acetylcholine receptor will be precipitated and be counted by the Gamma immunocount instrument whilst unbound α-bungarotoxin will be washed out. Therefore, 12 isolated proteins binding inhibition rate of α-bungarotoxin with nicotinic acetylcholine receptor (nAChR) could be used to measure the affinity between the isolated proteins and nicotinic acetylcholine receptor (nAChR), that's each isolated protein's bioactivity, which could be further determined by the γ counting value per second (Bq) measured by immune counter, and it becomes the index of proteins bioactivity.
The way of implementation include the method of binding inhibition rate of 125I radioactive labeling-α-bungarotoxin with nicotinic acetylcholine receptor (%) which reflects the activity of each protein.
The method for identifying cobra neurotoxin with high affinity with nicotinic acetylcholine receptor (nAChR) includes the following steps: […]

T1 sequence (P25108 21-457): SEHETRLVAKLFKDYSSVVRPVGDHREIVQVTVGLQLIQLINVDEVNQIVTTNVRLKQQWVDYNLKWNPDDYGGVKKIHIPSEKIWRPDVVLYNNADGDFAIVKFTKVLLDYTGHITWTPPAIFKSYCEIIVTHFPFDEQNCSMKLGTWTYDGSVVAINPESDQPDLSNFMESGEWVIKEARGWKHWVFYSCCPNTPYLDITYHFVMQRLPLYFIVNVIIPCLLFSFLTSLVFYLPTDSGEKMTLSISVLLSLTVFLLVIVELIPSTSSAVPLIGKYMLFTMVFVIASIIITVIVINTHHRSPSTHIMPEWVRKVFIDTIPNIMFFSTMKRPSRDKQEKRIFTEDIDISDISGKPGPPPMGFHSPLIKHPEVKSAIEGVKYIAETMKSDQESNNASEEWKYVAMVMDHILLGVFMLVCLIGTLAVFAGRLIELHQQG
T1 sequence (P25109 24-501 partner): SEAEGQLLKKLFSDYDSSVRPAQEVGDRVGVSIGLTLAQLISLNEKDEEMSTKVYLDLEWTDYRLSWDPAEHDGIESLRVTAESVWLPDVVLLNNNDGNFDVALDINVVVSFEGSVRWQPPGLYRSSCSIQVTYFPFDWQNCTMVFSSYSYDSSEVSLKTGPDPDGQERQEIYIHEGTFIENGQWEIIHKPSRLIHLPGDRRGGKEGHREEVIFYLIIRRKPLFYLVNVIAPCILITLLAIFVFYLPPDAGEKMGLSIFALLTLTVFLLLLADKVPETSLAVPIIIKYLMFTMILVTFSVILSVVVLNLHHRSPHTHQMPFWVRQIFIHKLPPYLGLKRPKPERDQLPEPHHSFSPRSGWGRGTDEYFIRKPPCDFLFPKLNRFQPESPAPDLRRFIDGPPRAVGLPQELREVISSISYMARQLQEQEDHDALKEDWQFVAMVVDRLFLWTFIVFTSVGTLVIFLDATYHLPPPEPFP
T1 sequence (P25110 22-517): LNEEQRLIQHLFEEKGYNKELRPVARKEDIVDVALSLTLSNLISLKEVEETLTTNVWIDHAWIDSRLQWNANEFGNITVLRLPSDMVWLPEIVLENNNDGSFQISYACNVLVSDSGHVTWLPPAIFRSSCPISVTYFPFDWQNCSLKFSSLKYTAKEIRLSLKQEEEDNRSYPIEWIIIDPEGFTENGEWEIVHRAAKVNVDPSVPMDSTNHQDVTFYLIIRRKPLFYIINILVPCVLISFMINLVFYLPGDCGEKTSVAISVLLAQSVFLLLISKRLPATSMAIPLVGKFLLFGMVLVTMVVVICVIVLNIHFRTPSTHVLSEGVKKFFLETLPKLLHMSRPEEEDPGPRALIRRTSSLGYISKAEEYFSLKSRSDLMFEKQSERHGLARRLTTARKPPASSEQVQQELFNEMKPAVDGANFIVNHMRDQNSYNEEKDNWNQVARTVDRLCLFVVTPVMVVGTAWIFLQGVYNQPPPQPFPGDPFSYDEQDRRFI

| Molecule | IgG ([1]; Table 4) | TRF ([1]; Table 4) | UALB ([1]; Table 4) | a1-MG ([1]; Table 4) | IgG ([2]; Table 2) | TRF ([2]; Table 2) | UALB ([2]; Table 2) | a1-MG ([2]; Table 2) | IgG ([1]; Table 3) | TRF ([1]; Table 3) | UALB ([1]; Table 3) | a1-MG ([1]; Table 3) | β2-MG ([1]; Table 3) | IgG ([2]; Table 1) | TRF ([2]; Table 1) | UALB ([2]; Table 1) | a1-MG ([2]; Table 1) | β2-MG ([2]; Table 1) | 125I-αBtx-nAChR binding inhibitory rate [3] |
| --- | --- | --- | --- | --- | --- | --- | --- | --- | --- | --- | --- | --- | --- | --- | --- | --- | --- | --- | --- |
| B1 | 0.31 ± 0.09 µg/mL | 0.18 ± 0.06 µg/mL | 0.89 ± 0.26 µg/mL | 0.96 ± 0.19 µg/mL | 0.31 ± 0.15 µg/mL | 0.11 ± 0.032 µg/mL | 0.82 ± 0.21 µg/mL | 0.74 ± 0.14 µg/mL | – | – | – | – | – | – | – | – | – | – | – |
| B2 | – | – | – | – | – | – | – | – | 0.35 ± 0.11 µg/mL | 0.17 ± 0.05 µg/mL | 1.21 ± 0.14 µg/mL | 1.02 ± 0.21 µg/mL | 38.90 ± 11.82 ng/mL | 0.34 ± 0.08 µg/mL | 0.17 ± 0.08 µg/mL | 0.89 ± 0.11 µg/mL | 0.52 ± 0.8 µg/mL | 29.29 ± 6.93 ng/mL | about 50% |

— patent US20230045015A1, “Use of Cobra neurotoxin polypeptide molecule in the treatment of nephropathy proteinuria” (priority 2019, published 2023)
